The target of this assay is Gluc1-ΔN(1–433). As to the kind of experiment: split reporter.

We go through 1 substance from paper doi:10.1101/2022.10.27.514150.

Gluc2-E2F4 FL, sequence (Q16254 whole entry): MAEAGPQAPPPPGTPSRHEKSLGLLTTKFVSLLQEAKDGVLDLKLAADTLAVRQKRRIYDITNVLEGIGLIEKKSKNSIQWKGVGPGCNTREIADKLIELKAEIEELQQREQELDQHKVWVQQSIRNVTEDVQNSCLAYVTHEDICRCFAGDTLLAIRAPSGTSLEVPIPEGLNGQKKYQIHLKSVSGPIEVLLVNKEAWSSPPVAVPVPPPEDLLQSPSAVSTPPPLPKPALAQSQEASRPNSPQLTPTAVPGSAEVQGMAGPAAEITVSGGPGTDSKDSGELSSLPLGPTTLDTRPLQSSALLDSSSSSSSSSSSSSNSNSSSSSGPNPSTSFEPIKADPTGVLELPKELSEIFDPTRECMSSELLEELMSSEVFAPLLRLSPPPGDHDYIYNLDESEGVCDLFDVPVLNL

Take “Gluc2-E2F4 FL (from UniProt Q16254 1-413) (natural protein)”: the normalized luminescence ratio (NLR) was over 20.
